The data set can be described thus: soluble fraction after stress (log2 fold change); higher = more stays soluble; pooled small domains, quantitative proteomics. The following applies: stress: 75 degC.
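Further: 20 min heating vs room temperature control held 20 min.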

On to “HMKEIKAPNKINAHLIEEWRSQHPTELFPEEKVDLIYYKGEEYYFVIEEKNELGEIEEWYFAYDGGIDYV”, for which the “soluble fraction (log2)” value worked out at 0.372.

As for “HMKEILTNESIIQFVKDKVSEEQIIYKINNSPIDFKLDVNSMVSLAKQNVSSTIIIAMENAMNN”, the “soluble fraction (log2)” value is -1.28.

Regarding “HMKELLQEMIMDILRAIASPNIDIKRKTLDLVLDLITPRNIDNVTGMLKTEVVKSQSENTSDVG”, the “soluble fraction (log2)” value was -1.58.

As for “HMKELTYSDFRKAYPDIQGNLFGMAERYITALDWTEVAAKVETDEELRKERDIFYLVKTYIRKYVQ”, the “soluble fraction (log2)” value was -1.86.

“HMKELVAGQTVRVHHSIGFGQTGTVTALNSLKTTLPNGLRTNTASILFQNNEKVVLPISNFDIIES”: the “soluble fraction (log2)” value was -0.0164.

“HMKELVEDFASRISNARQSKGWNQSELAKRMAETVNVVKSAESGKSPTDSVIKKLERVLGIILM”: the “soluble fraction (log2)” value is -0.778.

Take “HMKEQLITVYVSGAVARPGLYELPAGIRAQEAVEAAGGFTEAANHEKVNLAKKLKDGSQVNVPALK”: the “soluble fraction (log2)” value is -0.122.

As for “HMKEQYDLNDREQQFISLVANGLNNKEIAETLFLSEGTVRNYLSNLLDKLGLRDRTQLAIFFYQHL”, the “soluble fraction (log2)” value was -2.01.

As for “HMKERLLDPYKDFIVNYLQKYPYTPAAVMHDKLKESYPDFPKVDPKTIYNFVMLLRRDFNIPKV”, the “soluble fraction (log2)” value was -0.842.

Regarding “HMKETERKILQAVLGLPLKYRDVIHLFYYEEMSVKEIAEVLHRQESTVTSQLTRARGILKKNL”, the “soluble fraction (log2)” value stood at 0.264.

As for “HMKETLSDTVSRKLEDMITTQMKAGNRLPTEMVLAEMYSVGRSTIRESLKALSSKGLIVRKKDGTFVSDRV”, the “soluble fraction (log2)” value was -0.422.

As to “HMKEVKAPMPGMVLRVEVAPGQEVQEGDPLLVLEAMKMENNLKSPASGTIKSVHVEAGKAVEKGAVLVVF”, the “soluble fraction (log2)” value is -0.0661.

Take “HMKEVKRDQVIEAARKLFHQFGFKKVSMDEIAKEAGVTKKTIYMYFESKEELLKYFIQEEISN”: the “soluble fraction (log2)” value was -0.373.

Regarding “HMKEVVKVTITPSEKLKSQYPDALVSIDGKFYDLGILNNPVEFYMDKDHKISIIWSTAELVESFRI”, the “soluble fraction (log2)” value is -0.000631.

For “HMKEYRKEGHLYFVTEDRNNEIYLWDFTDKPKHEFKEIITSVELQKVAKEGAMLQYKNGKYELYS”, the “soluble fraction (log2)” value was -0.78.

“HMKFDVNAAIRAVLNVTVDKGATLERIMKETNLTSDQLVLPIALLMKTERLHFKRSGTHEVYVSVGKAPDK”: the “soluble fraction (log2)” value was -3.79.

“HMKFGEQIKERRQELDLTQAEVAEKLFVTRQAVSNWEHNKTYPDLNMLVKISNVYQISLDSLLR”: the “soluble fraction (log2)” value was -1.37.

As for “HMKFHENLIALRRREGWSQEELGNRIGVTRQTVSKWELGLTTPELEKLVQLADVFGMTTDQLVGR”, the “soluble fraction (log2)” value is -0.295.

“HMKFNLWLSEKLKKLGLTQRKLAEQAGVSPATVSRWLSGEFEPDLTNLRKINQVLGVPERELFLQLGL”: the “soluble fraction (log2)” value is -0.193.

Take “HMKFPNVGENLRLLRQEMGISLDKASKMTGVSKAMLGQIERGESSPTVSTLWKISSGFKINFTTLLSE”: the “soluble fraction (log2)” value was -2.92.

As for “HMKFPPASDIRRMRKAIDVTQTELAKQSGVSQSTIAKIERGRISASYDTVVKLFETLDEMAK”, the “soluble fraction (log2)” value is -0.405.

For “HMKFTPPTLEQIKNEMLLKTDEYNADIQSDRFFTYYDSNGWMVGKNKMKKFLVSLVAVFAATSA”, the “soluble fraction (log2)” value was -0.786.

For the sequence “HMKFYIHEIIGFNAVDKVAGIVGKVININEDSPQKKLVVNYNGKEVFIPLVDEIVRKIDKQKNEVLITMP”, the “soluble fraction (log2)” value turned out to be 0.00585.

Turning to “HMKGEIEELLYEEVTKDNNTTFLRIYIKLNDEYNTLLNLGIIGIKTEEKVNELVNLGYKKVL”, the “soluble fraction (log2)” value was -4.19.

On to “HMKGISRVTMELIIDALKKETEPRTVQWIAEKTGLATQTTYRYLQYMVSEQTVEALNVYGKVVSLKAK”, for which the “soluble fraction (log2)” value is -0.649.

With “HMKGKWKPIILWQLSKAPQSLSGLRHSIAGISQKMLIQHLNELIHFGFVVRTTFEGYPLKVEYDLTDRGR”, the “soluble fraction (log2)” value is -0.196.

For “HMKGLDAAVVDLFKSKGASIVFAGNRLSLSGEVADQATKDELLAKAKAILASLGASVSLDDKLMVKGAKAS”, the “soluble fraction (log2)” value was 0.0761.

On to “HMKGMIKVASMSLGADLGLYSRHLKYLGIVHRVVEESGGQSVYIQKLNDLHTAKESLELYLKNELKI”, for which the “soluble fraction (log2)” value was -2.56.

With “HMKGQNRSEITAGARVKVVQKQDQRTGALTEGIVRDILTRSPHHPHGIKVRLESGIVGRVKDVL”, the “soluble fraction (log2)” value is -0.312.

Take “HMKGSIMIETILKELKKNNKGFNFLLEKFDISEDELMKIINDLIHDKKVFLNSNNKYEIVSD”: the “soluble fraction (log2)” value was -0.72.

With “HMKGTVLAPGIILNADDQRFTYLQEDVASVAKDGAAIVLKQGDEVDFIADGQTAKQIYLTKT”, the “soluble fraction (log2)” value is 0.289.

As to “HMKGVPGIGDYVKLSGGSTVGKVLSISGKKAEVAFGLLRTTTELSKLEKVRKPKELLQSGVSS”, the “soluble fraction (log2)” value was -0.0317.

“HMKGVTVDGDNITVDGEKQTLISVNKNLDGDVVSYTYRTADGKLRTSRNVEVAQEINKQQLLKSIDAQ”: the “soluble fraction (log2)” value was 0.0529.

With “HMKGWPDREQAEKIWQQGIDYAIEHHTMSPQIVKEYIFHTQGIARSAALIAARLPDMDTEKAYVLGLLHD”, the “soluble fraction (log2)” value is -0.377.

As to “HMKIAEALNLRGDADSYERQEAIWLLEHIVGMSALELKYRGEQDLTEDQLQQYRSGLQRLEQGEPLAYVIG”, the “soluble fraction (log2)” value was -0.965.

As to “HMKIDLKQIEGVLDELAKVKGSLITILQKTQETYGYLPKEAIIYISERTGIAESEIMGVATFYTQFRL”, the “soluble fraction (log2)” value is -0.45.

Turning to “HMKIDLTPQEEKIYSVLETELTLDEIIMKTSIKAGEALAILMDLELKKLVASVAGGKYRRKA”, the “soluble fraction (log2)” value was 0.386.

Regarding “HMKIEETLGKTAQVYIPIPQYLSGIGKVTLSVRGSLRELDAMTEEEKIPSNTIVRIVKVQDQVLFVKRA”, the “soluble fraction (log2)” value is -3.77.

Turning to “HMKIHNSIREITDFDRKQNSNIPSDAKYRIVFYTPQGNKTIIPEELQGLQYYRSKELAEIALNKKLNSN”, the “soluble fraction (log2)” value is -0.197.

Take “HMKILKQLEAIIEKEGLNESAKQFYLREISELDKEKQQEIINLVDKMEQAGFKNNLASAFSEVTEDIPQF”: the “soluble fraction (log2)” value is -0.138.

On to “HMKILNYQSLVGKKGITKSMLRPAGIVEIEGRRYDVVTRGEFIEPGKMITVDEVQGNRIIVQIERE”, for which the “soluble fraction (log2)” value was -0.758.

For “HMKIPIIYQPLKNAKRIKIYIPYELKELRTIFKKINTTFWHPNQKLWSIIYTQENVALIKNLFGKNYKIVN”, the “soluble fraction (log2)” value was -0.499.

As for “HMKIQEVDYSTFLNMLNEKSIAQVEIQDNQIAFNSNQEGNKQIYVTGRIEEDTELVNRLQAAGVQFSRV”, the “soluble fraction (log2)” value amounted to 0.0484.

Turning to “HMKIRIIKTASNAKAVQIVSYKNNKRIVLQHIGSAHTDETLNDLKILAEEWIKDYNHQLSIF”, the “soluble fraction (log2)” value is -2.88.

Consider “HMKISDLPAAQVYREIVHAWPKAAAYADLAPINNGGMQRWRDVVHEWVLRGYNPANLRGMLEWYKAGIPTR”, for which the “soluble fraction (log2)” value was -0.731.

For “HMKISDMIETNLKFLRGKHSISQAELAESLGIPRTTLSAYERGFVEPNIELMLKMAKYFNVSLDDLIAYN”, the “soluble fraction (log2)” value was -2.07.

“HMKISQSRKAGKLVLESELKRGGVSLDQYRGGRMSRILELIGVKSLNELLTDLGTGKKTGALVAERFFSGL”: the “soluble fraction (log2)” value was -0.618.

With “HMKITFNPVSSGRLDIILAEKTGYTRSYVKQLVEKQAVTINGEAAKKSGQNVKAGDEIALDEP”, the “soluble fraction (log2)” value worked out at 0.151.

For the sequence “HMKITIDSVERDETFRLIWGTGWKPKNKIQELAAIQAKKNGLGRMNEVAGLAAWRGIWQQVAEQVAQEVL”, the “soluble fraction (log2)” value is -2.03.

“HMKITKIWFTADHIFGRDEEGKEYSQSLLWYPKLSAASDEERSQYTFGYDGIHWRSLDEDISFESF”: the “soluble fraction (log2)” value was -3.01.

(Values after the domain aggregation screens of Martell et al. (2025).)
